Laboratory results taken from paper PMC6826516 (2019).

B1: SmBiT-TAZ-Flag (TAZ aa 13-119), wild type [not stated] / LgBiT-TEAD1-Myc (TEAD1 aa 194-411), wild type [not stated] (parent complex)
chain 1: PGQQVIHVTQDLDTDLEALFNSVMNPKPSSWRKKILPESFFKEPDSGSHSRQSSTDSSGGHPGPRLAGGAQHVRSHSSPASLQLGTGAGAAGSPAQQHAHLRQQSYD
chain 2: RSIGTTKLRLVEFSAFLEQQRDPDSYNKHLFVHIGHANHSYSDPLLESVDIRQIYDKFPEKKGGLKELFGKGPQNAFFLVKFWADLNCNIQDDAGAFYGVTSQYESSENMTVTCSTKVCSFGKQVVEKVETEYARFENGRFVYRINRSPMCEYMINFIHKLKHLPEKYMMNSVLENFTILLVVTNRDTQETLLCMACVFEVSNSEHGAQHHIYRLVKD

Variants of: B1
Test: NanoBiT assay (split-luciferase biosensor) in lysates of transfected HEK293T cells; 48 h after transfection; equal amounts of each biosensor plasmid; read off a plot

response	Variant
~430 fold over LgBiT-TEAD1 alone	chain 1 W31A, chain 1 K34A, chain 1 L36A, chain 1 S39A, chain 1 F40A, chain 1 F41A
